According to patent US20180009892A1 (EUREKA THERAPEUTICS, published 2018):

Columns and labels:
human ROR2-ECD = biological target: T1, human ROR2-ECD (human, UniProt Q01974 34-403); test: protein ELISA, phage
T1 construct: extracellular domain; also called hROR2

[1] = biological target: T2, human ROR1 extracellular domain (ECD) protein (human, UniProt Q01973 30-406); test: competitive phage ELISA: soluble ROR1 against ROR1-coated plate
T2 construct: also called hROR1-ECD; human ROR1-ECD
Method: Purified phage antibodies were first diluted serially in PBST buffer, and tested for binding to a ROR1-coated plate. The dilution that gave 50-80% saturating signal was used in the solution binding assay in which phage were first incubated with increasing concentration of ROR1 for one to two hours, and then transferred to a ROR1-coated plate for 10-15 minutes to capture the unbound phage.

[2] = biological target: T3, ROR1 extracellular domain Fc-fusion, dimer (human, UniProt Q01973 30-406); test: SPR, immobilised ROR1 dimer, antibody injected, 1:1 model
T3 construct: also called ROR1 dimer; hROR1 dimeric ECD-Fc fusion protein; not shown: Fc part
T3 sequence (Q01973 30-406): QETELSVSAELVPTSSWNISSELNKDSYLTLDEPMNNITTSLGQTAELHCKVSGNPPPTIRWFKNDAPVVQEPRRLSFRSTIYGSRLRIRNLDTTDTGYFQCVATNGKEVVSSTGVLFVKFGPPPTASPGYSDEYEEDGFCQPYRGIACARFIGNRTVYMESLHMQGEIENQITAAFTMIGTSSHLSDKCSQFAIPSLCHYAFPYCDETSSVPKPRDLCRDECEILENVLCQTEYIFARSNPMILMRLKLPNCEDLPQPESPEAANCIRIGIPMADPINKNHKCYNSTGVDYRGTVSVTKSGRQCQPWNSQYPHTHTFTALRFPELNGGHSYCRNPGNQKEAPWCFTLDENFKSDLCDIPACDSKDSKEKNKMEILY
Method: (§1) The binding affinities of ROR1 extracellular domain dimer and monomer for anti-ROR1 antibodies were determined by surface plasmon resonance (SPR). ROR1 extracellular domain Fc-fusion, “dimer,” and ROR1 extracellular domain Fc fusion:Fc heterodimer, “monomer,” are the dimer and monomeric forms of ROR1 used for affinity analysis, respectively. Briefly, ROR1 dimer and monomer were directly immobilized to a CM4 chip using an amine coupling kit and 100 mM ethylenediamine in 100 mM Sodium Borate buffer, pH 8.0 as the blocking reagent. Approximately 100-150 RU of ROR1 dimer and monomer were immobilized on separate flow cells and an un-derivatized flow cell was used as a reference control. […] Dissociation was followed for 180 seconds. The association constant, dissociation constant, and affinity of each anti-ROR1 antibody was calculated using the Biacore T200 Evaluation Software 1:1 binding model.
(§2) Sensorgrams were normalized to 100 RU using the “binding stability point” at the end of the association phase but before the dissociation phase.

[3] = biological target: T4, ROR1 extracellular domain Fc fusion:Fc heterodimer, monomer (human); test: SPR, immobilised ROR1 monomer, antibody injected, 1:1 model
T4 construct: Heterodimer of one ROR1 ECD-Fc chain and one Fc chain; also called ROR1 monomer; hROR1 monomeric ECD-Fc fusion protein; not shown: Fc part; Fc alone
T4 sequence (Q01973 30-406, one chain of several): as the sequence (Q01973 30-406) above
Method: as §1, §2

[4] = biological target: T3, ROR1 extracellular domain Fc-fusion, …; test: SPR, immobilised ROR1 dimer, antibody injected, 1:1 model; apparent affinity
Method: as §1, §2

T1 sequence (Q01974 34-403): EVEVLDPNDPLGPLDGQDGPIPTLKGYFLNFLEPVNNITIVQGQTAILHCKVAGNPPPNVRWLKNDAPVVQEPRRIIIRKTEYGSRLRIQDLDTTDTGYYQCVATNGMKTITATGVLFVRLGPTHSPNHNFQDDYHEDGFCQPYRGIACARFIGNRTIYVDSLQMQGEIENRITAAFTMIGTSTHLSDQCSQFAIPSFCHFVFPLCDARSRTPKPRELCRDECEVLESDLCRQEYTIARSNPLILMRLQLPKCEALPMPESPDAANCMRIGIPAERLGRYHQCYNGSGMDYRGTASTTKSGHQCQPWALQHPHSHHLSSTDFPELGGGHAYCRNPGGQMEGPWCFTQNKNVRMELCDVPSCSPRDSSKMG
T2 sequence (Q01973 30-406 limits assumed): as the sequence (Q01973 30-406) above

Row | Binder | binding result (human ROR2-ECD) | IC50 [1] [nM] | koff [2] [s⁻¹] | kon [2] [M⁻¹ s⁻¹] | Kd [3] [nM] | koff [3] [s⁻¹] | kon [3] [M⁻¹ s⁻¹] | Kd [4] [nM]
1 | P601-128 (scFv, V domains shown) VH: EVQLVQSGAEVKKPGESLKISCKGSGYSFSRYWIGWVRQMPGKGLEWMGIIYPRDSDTRYSPSFQGQVTISADKSISTAYLQWSSLKASDTAMYYCATPVVTAGAFDIWGQGTMVTVSS VL: DIQMTQSPSSVSASVGDRVTITCRASQGISSWLAWYQQKPGKAPKLLIYAASSLQSGVPSRFSGSGSGTDFTLTISSLQPEDFATYYCQQANSFPLTFGGGTKVEIK | no binding | 263 | – | – | – | – | – | –
2 | P601-108 (scFv, V domains shown) VH: QLQLQESGPGLVKPSETLSLTCTVSGGSISSNSYYWGWIRQPPGKGLEWIGSIYYSGSTYYNPSLKSRVTISVDTSKNQFSLKLGSVTAADTAVYYCARHDGTDAFDIWGQGTTVTVSS VL: QSVVTQPPSVSAAPGQKVTISCSGSSSNIGKNYVSWYQQFPGTAPKLLIYDNNERPSGIPARFSGSKSGTSATLGITGLQTGDEADYYCATFDTSLWAAVFGGGTKLTVL | no binding | 0.76 | – | – | – | – | – | –
3 | P601-4 (scFv, V domains shown) VH: EVQLVQSGPGLVKPSGTLSLTCAVSGGSISSSNWWSWVRQPPGKGLEWIGEIYHSGSTNYNPSLKSRVTISVDKSKNQFSLKLGSVTAADTATYYCARDLWLGEWDLWGQGTLVTVSS VL: QSVLTQPPSASGAPGQRVTISCSGGISNVGTNGVNWYQHLPGTAPKLLVDAMNQRPSGVPDRFSGSRSGTSGSLAITGLRSEDEADYYCATWDDSLSGVLFGGGTKLTVLG | no binding | 0.93 | – | – | – | – | – | –
4 | Antibody 601-13 (antibody, V domains shown) VH: EVQLVQSGAEVKKPGSSVKVSCKASGGTFSTFAINWVRQAPGQGLEWMGGVIPVSGTEDYSQKFQGRLSLTADESTGTAYMELSSLRSDDTAVYYCARDRSGRDWDYFDYWGQGTLVTVSS VL: DIVMTQSPSSLSASVGDRVTITCQASQDISNYLNWYQQKPGKAPKLLIYDASNLETGVPSRFSGSGSGTDFIFTISSLQPEDIATYYCQQFDNLPYTFGQGTKVEIKR | – | – | 0.00087 | 1.6e+06 | 0.8 | 0.0014 | 1.8e+06 | 0.5
5 | P601-9 (scFv, V domains shown) VH: QLQLQESGPGVVKPSGTLSLTCTVSGGSISRSDGYWGWVRQPPGKGLEWIGSIYDTGTTYYSPSLKSRLIISVDTSKNQFSLTLNSVTAADTAVYYCASMGGLRSSSSDAFHTWGPGTMVTVSS VL: QSVLTQPPSVSVAPGETARITCGGTNIGSESVHWYQQRPGQAPVLVVYDDTDRPSGIPERFSGSNSGNTATLTISRVEAGDGADYYCQVWDSVSDRYVFGTGTKVTVL | no binding | 14.6 | – | – | – | – | – | –
6 | P601-69 (scFv, V domains shown) VH: QVQLVQSGAEVKKPGESLKISCKGSGYSFTSYWIGWVRQMPGKGLEWMGIIYPGDSDTRYSPSFQGQVTISADKSISTAYLQWSSLKASDTAMYYCARLSSSSYDAFDIWGQGTMVTVSS VL: QSALTQPASVSGSPGQSITISCTGTSSDVGGYNYVSWYQQHPGKAPKLMIYDVSNRPSGVSNRFSGSKSGNTASLTISGLQAEDEADYYCSSYTSSSIPWVFGGGTKLTVL | no binding | 9.81 | – | – | – | – | – | –
7 | P601-50 (scFv, V domains shown) VH: QVQLQQSGAEVKKPGASVKVSCKASGYTFSRYYIHWVRRAPGQGLEWMGLINPGGGSTNYAQKFQGRVTMTRDTSTNTVYLELSSLRSDDTAVYYCARDYGTIDARRFDFWGQGTLVTVSS VL: QSALTQPPSASGTPGQRVTISCPGSSSNIGSNYVYWYQQLPGTAPKLLIYRNNQRPSGVPDRFSGSKSGTSATLGITGLQTGDEADYYCGTWDSSLSAYVFGTGTKVTVL | no binding | 24.1 | – | – | – | – | – | –
8 | P601-70 (scFv, V domains shown) VH: EVQLVQSGAELKKPGSSVRVSCKTSGGSFKTHGISWVRQAPGQGLEWMGWINPNSGGALYVDNFQGRATMTRDTSINTAYMELRSLSSDDTAVYYCARGMADLIDVFDIWGQGTMVTVSS VL: TQPALTQPASVSGSPGQSITISCTGTSSDFGDYDYVSWYQQHPGKAPKLMIYDVSDRPSGVSNRFSGSKSGNTASLTISGLQAEDEADYFCSSFTTSSTLVFGGGTKLTVL | no binding | 74 | – | – | – | – | – | –
9 | Antibody 601-100 (antibody, V domains shown) VH: EVQLVQSGGGVVQPGGPLRLSCAASGFTFSSYSMNWVRQAPGKGLEWVSSISSSSSYIYYADSVKGRFTISRDNAKNSLYLQMNSLRAEDTAVYYCARGLGGWTHDAFDIWGQGTMVTVSS VL: QSALTQPASVSGSPGQSITISCTGTSRDVGGYDYVSWYQQYPGNAPKLMIYDVSRRPSGVSHRFSASKSGNTASLTISGLQTEDEADYYCSSYTSSSTRVFGGGTKVTVL | – | – | 0.0017 | 440000 | 8.2 | 0.0028 | 350000 | 3.9
10 | Antibody 601-28 (antibody, V domains shown) VH: EVQLVQSGGDLVQPGGSLRLSCAASGFTFSSYSMNWVRQAPGKGLEWVSSISSSSSYIYYADSVKGRFTISRDNAKNSLYLQMNSLRAEDTAVYYCARGLGGWTHDAFDIWGQGTTVTVSS VL: QSALTQPASVSGSPGQSITISCTGTSSDVGGYNYVSWYQQHPGKAPKLMIFDVSNRPSGVSNRFSGSKSGNTASLTISGLQAEDEADYYCSSYTSSSTLFGGGTKLTVL | – | – | 0.0097 | 340000 | 36.4 | 0.012 | 320000 | 28.5
11 | P601-102 (scFv, V domains shown) VH: QMQLVQSGGDLVQPGGSLRLSCAASGFTFSSYSMNWVRQAPGKGLEWVSSISSSSSYIYYADSVKGRFTISRDNAKNSLYLQMNSLRAEDTAVYYCARGLGGWTHDAFDIWGQGTTVTVSS VL: QSALTQPASVSGSPGQSITISCTGTSSDVGGYNYVSWYQQHPGKAPKLMIYDVSKRPSGVSNRFSGSKSGNTASLTISGLQAEDEADYYCSSYTSSSTSVVFGGGTKLTVL | no binding | 10.2 | – | – | – | – | – | –
12 | P601-119 (scFv, V domains shown) VH: QVQLVQSGGGLVKPGGSLRLSCAASGFTFGTYSMNWVRQAPGKGLEWVSSISSSSSYIYYADSVKGRFTISRDNAKNSLYLQMNSLRAEDTAVYYCARGLGGWTHDAFDIWGQGTTVTVSS VL: QSALTQPASVSASPGQSITISCTGTSSDVGGYNYVTWYQQHPGKAPKLMIYDVSKRPSGVLDRFSGSKSGNTASLTISGLQAEDEADYFCSSYTSSSTLVFGGGTKLTVLG | no binding | 17.7 | – | – | – | – | – | –
13 | Antibody 601-119 (antibody, V domains shown) VH: QVQLVQSGGGLVKPGGSLRLSCAASGFTFGTYSMNWVRQAPGKGLEWVSSISSSSSYIYYADSVKGRFTISRDNAKNSLYLQMNSLRAEDTAVYYCARGLGGWTHDAFDIWGQGTTVTVSS VL: QSALTQPASVSASPGQSITISCTGTSSDVGGYNYVTWYQQHPGKAPKLMIYDVSKRPSGVLDRFSGSKSGNTASLTISGLQAEDEADYFCSSYTSSSTLVFGGGTKLTVLG | – | – | 0.079 | 440000 | 407 | 0.095 | 230000 | 178
14 | P601-100 (scFv, V domains shown) VH: EVQLVQSGGGVVQPGGPLRLSCAASGFTFSSYSMNWVRQAPGKGLEWVSSISSSSSYIYYADSVKGRFTISRDNAKNSLYLQMNSLRAEDTAVYYCARGLGGWTHDAFDIWGQGTMVTVSS VL: QSALTQPASVSGSPGQSITISCTGTSRDVGGYDYVSWYQQYPGNAPKLMIYDVSRRPSGVSHRFSASKSGNTASLTISGLQTEDEADYYCSSYTSSSTRVFGGGTKVTVL | no binding | 5.8 | – | – | – | – | – | –
15 | Antibody 601-103 (antibody, V domains shown) VH: EVQLVQSGGDLVQPGGSLRLSCAASGFTFSSYSMNWVRQAPGKGLEWVSSISSSSSYIYYADSVKGRFTISRDNAKNSLYLQMNSLRAEDTAVYYCARGLGGWTHDAFDIWGQGTTVTVSS VL: QSVLTQPASVSGSPGQSITISCTGTTSDVGGYNYVSWYQQHPGKAPKLMIYDVSKRPSGVSNRFSGSKSGNTASLTISGLQAEDEADYYCSSYTSSSTDVFGTGTKLTVL | – | – | 0.0035 | 170000 | 40.2 | 0.005 | 120000 | 20.7
16 | Antibody 601-112 (antibody, V domains shown) VH: EVQLVQSGGDLVQPGGSLRLSCAASGFTFSSYSMNWVRQAPGKGLEWVSSISSSSSYIYYADSVKGRFTISRDNAKNSLYLQMNSLRAEDTAVYYCARGLGGWTHDAFDIWGQGTTVTVSS VL: QSALTQPASVSGSPGQSITISCTGTSSDVGGYNYVSWYQQHPGKAPKLMIYDVSKRPSGVSNRFSGSKSGNTASLTISGLQAEDEADYYCSSYTGRSTVFGGGTKLTVL | – | – | 0.00032 | 340000 | 4.6 | 0.0012 | 270000 | 1
